Target: T1, HutC (Pseudomonas aeruginosa PAO1) (UniProt Q9HU78)
T1 sequence: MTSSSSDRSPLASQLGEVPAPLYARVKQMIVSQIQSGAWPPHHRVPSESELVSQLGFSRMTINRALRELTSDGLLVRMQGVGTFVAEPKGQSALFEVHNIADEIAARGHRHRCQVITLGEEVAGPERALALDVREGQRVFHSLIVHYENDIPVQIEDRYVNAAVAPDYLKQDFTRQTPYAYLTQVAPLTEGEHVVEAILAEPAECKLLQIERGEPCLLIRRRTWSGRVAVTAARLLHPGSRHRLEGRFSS
Assay: EMSA
Details: 10 mM Tris-HCl pH 7.5, 100 mM NaCl, 1 mM DTT, 3 ng/uL sheared salmon sperm DNA, 1% glycerol, 2 ng/uL probe, 20 min at room temperature; 6% native gel, 0.5x TBE

Sequence: ACGGCGGCCTGAGCCGCCGGCCAATAACAATGATCGAGGCCGTTCCCCCGGGCGCGGCCCGCAGGTTTTCCAACTGCCTTTCCCAATCGTGCATCTGGAGCGTCGAACC (double strand) [hutG -108 to -1]
- binding: binds
